Reference: paper PMC2756588

T1: Myo5, Q04439
T1 sequence (Q04439 1072-1160, looked up): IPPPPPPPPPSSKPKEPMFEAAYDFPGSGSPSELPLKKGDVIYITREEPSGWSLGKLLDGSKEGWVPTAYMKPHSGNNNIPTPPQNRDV

T2: Abp1, P15891
T2 sequence (P15891 535-592, looked up): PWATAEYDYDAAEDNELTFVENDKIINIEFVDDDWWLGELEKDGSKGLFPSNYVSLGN

T3: Pin3, Q06449
T3 sequence (Q06449 53-122, looked up): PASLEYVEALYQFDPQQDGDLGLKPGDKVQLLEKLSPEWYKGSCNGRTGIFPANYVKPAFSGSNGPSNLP

T4: Bbc1, P47068
T4 sequence (P47068 1-78, looked up): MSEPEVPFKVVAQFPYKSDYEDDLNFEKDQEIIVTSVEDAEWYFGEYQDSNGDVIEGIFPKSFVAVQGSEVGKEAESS

T5: Cdc25, P04821
T5 sequence (P04821 50-136, looked up): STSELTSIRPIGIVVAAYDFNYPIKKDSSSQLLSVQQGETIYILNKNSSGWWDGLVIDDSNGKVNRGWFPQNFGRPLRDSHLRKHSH

T6: Hof1, Q05080
T6 sequence (Q05080 590-669, looked up): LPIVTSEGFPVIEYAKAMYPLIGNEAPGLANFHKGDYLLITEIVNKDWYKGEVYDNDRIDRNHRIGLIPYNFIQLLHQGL

T7: Lsb4, P32793
T7 sequence (P32793 402-468, looked up): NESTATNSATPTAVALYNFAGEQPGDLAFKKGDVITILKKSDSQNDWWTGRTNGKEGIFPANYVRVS

T8: Bzz1-2, P38822
T8 sequence (P38822 568-633, looked up): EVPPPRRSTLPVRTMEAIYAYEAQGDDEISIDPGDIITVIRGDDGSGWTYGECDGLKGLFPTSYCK

T9: Nbp2, Q12163
T9 sequence (Q12163 103-180, looked up): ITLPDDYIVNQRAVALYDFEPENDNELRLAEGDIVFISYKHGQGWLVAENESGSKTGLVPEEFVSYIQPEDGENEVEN

T10: Hse1, P38753
T10 sequence (P38753 208-285, looked up): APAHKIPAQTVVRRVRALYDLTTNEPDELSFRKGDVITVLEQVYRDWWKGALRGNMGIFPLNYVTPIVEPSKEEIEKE

T11: Sla1-2, P32790
T11 sequence (P32790 60-140, looked up): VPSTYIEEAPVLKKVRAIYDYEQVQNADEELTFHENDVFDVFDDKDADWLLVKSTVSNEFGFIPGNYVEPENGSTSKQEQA

T12: Lsb1, P53281
T12 sequence (P53281 45-122, looked up): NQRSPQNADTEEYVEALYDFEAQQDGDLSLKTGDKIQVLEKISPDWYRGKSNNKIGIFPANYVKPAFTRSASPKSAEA

T13: Bzz1-1, P38822
T13 sequence (P38822 478-572, looked up): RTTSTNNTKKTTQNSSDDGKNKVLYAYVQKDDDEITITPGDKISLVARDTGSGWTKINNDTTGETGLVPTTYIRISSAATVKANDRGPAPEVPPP

T14: Fus1, P11710
T14 sequence (P11710 432-512, looked up): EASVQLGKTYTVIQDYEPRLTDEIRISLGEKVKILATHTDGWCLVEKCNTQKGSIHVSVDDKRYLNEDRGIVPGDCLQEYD

T15: Lsb3, P43603
T15 sequence (P43603 385-451, looked up): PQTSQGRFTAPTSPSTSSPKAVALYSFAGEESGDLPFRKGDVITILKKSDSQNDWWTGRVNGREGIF

T16: Boi1, P38041
T16 sequence (P38041 1-86, looked up): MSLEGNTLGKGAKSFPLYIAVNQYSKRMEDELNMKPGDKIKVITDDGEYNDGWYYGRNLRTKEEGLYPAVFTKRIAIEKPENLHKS

T17: Pex13, P80667
T17 sequence (P80667 295-386, looked up): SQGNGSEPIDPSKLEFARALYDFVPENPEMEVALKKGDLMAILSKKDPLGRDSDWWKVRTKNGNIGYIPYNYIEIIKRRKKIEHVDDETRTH

T18: Bud14, P27637
T18 sequence (P27637 247-328, looked up): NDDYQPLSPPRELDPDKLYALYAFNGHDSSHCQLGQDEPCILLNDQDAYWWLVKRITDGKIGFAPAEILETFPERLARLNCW

T19: Boi2, P39969
T19 sequence (P39969 32-116, looked up): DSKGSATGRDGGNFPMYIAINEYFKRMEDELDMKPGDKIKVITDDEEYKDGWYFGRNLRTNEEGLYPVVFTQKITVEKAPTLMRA

T20: Sla1-3, P32790
T20 sequence (P32790 344-424, looked up): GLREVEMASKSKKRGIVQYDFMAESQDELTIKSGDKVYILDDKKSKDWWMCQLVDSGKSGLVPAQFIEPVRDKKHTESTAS

T21: Cyk3, Q07533
T21 sequence (Q07533 1-83, looked up): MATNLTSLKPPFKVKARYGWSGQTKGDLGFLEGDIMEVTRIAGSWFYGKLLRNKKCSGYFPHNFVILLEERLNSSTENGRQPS


Target: T1, Myo5, Q04439
Experiment: SPOT array
Conditions: median of control spots 471

Going from IRMPSNPALPKKLLN to AHFQPQRTAPKPPIS, the SPOT intensity rises from 81 to 104.

For STPQTMRQAPKRPDA, the SPOT intensity was 47.

Target: T2, Abp1, P15891
Experiment: SPOT array
Conditions: median of control spots 935

Going from IRMPSNPALPKKLLN to AHFQPQRTAPKPPIS, the SPOT intensity falls from 231 to 19.

With STPQTMRQAPKRPDA the SPOT intensity was 102.

Target: Bem1-2, P29366
Sequence (P29366 139-227): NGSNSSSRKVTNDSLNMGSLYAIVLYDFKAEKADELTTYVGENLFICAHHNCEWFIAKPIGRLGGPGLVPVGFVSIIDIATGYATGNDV
Experiment: SPOT array
Conditions: median of control spots 4347

First: IRMPSNPALPKKLLN
Second: AHFQPQRTAPKPPIS
The SPOT intensity of the first is lower: 0 for the first, 1860 for the second.

In the case of STPQTMRQAPKRPDA, the SPOT intensity is reported as 2.

Target: T3, Pin3, Q06449
Experiment: SPOT array
Conditions: median of control spots 2171

Compared with IRMPSNPALPKKLLN, AHFQPQRTAPKPPIS is lower in SPOT intensity: 115 for the first, 5 for the second.

Binder STPQTMRQAPKRPDA has an SPOT intensity of 192.

Target: Bem1-1, P29366
Sequence (P29366 55-141): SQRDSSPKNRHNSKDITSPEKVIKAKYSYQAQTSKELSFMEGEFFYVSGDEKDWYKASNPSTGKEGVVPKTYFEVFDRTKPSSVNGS
Experiment: SPOT array
Conditions: median of control spots 4282

IRMPSNPALPKKLLN and AHFQPQRTAPKPPIS are the same in SPOT intensity: 0 for the first, 0 for the second.

STPQTMRQAPKRPDA was tested, and the SPOT intensity was 0.

Target: T4, Bbc1, P47068
Experiment: SPOT array
Conditions: median of control spots 796

Going from IRMPSNPALPKKLLN to AHFQPQRTAPKPPIS, the SPOT intensity rises from 2 to 101.

In the case of STPQTMRQAPKRPDA, the SPOT intensity is reported as 8.

Target: GST
Experiment: SPOT array
Conditions: median of control spots 978

IRMPSNPALPKKLLN and AHFQPQRTAPKPPIS are the same in SPOT intensity: 0 for the first, 0 for the second.

With STPQTMRQAPKRPDA the SPOT intensity was 1.

Target: T5, Cdc25, P04821
Experiment: SPOT array
Conditions: median of control spots 969

Going from IRMPSNPALPKKLLN to AHFQPQRTAPKPPIS, the SPOT intensity rises from 4 to 5.

STPQTMRQAPKRPDA gave an SPOT intensity of 0.

Target: Rvs167, P39743
Sequence (P39743 419-482): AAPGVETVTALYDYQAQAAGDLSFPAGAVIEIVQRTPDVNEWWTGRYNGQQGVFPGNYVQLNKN
Experiment: SPOT array
Conditions: median of control spots 2707

IRMPSNPALPKKLLN and AHFQPQRTAPKPPIS are the same in SPOT intensity: 0 for the first, 0 for the second.

Binder STPQTMRQAPKRPDA has an SPOT intensity of 0.

Target: T6, Hof1, Q05080
Experiment: SPOT array
Conditions: median of control spots 4086

Compared with IRMPSNPALPKKLLN, AHFQPQRTAPKPPIS is lower in SPOT intensity: 6 for the first, 0 for the second.

Binder STPQTMRQAPKRPDA has an SPOT intensity of 0.

Target: T7, Lsb4, P32793
Experiment: SPOT array
Conditions: median of control spots 397

Going from IRMPSNPALPKKLLN to AHFQPQRTAPKPPIS, the SPOT intensity falls from 56 to 4.

STPQTMRQAPKRPDA showed an SPOT intensity of 33.

Target: T8, Bzz1-2, P38822
Experiment: SPOT array
Conditions: median of control spots 4538

First: IRMPSNPALPKKLLN
Second: AHFQPQRTAPKPPIS
The SPOT intensity of the first is higher: 2 for the first, 0 for the second.

STPQTMRQAPKRPDA gave an SPOT intensity of 2.

Target: T9, Nbp2, Q12163
Experiment: SPOT array
Conditions: median of control spots 357

Going from IRMPSNPALPKKLLN to AHFQPQRTAPKPPIS, the SPOT intensity rises from 15 to 750.

With STPQTMRQAPKRPDA the SPOT intensity was 53.

Target: T10, Hse1, P38753
Experiment: SPOT array
Conditions: median of control spots 1727

Going from IRMPSNPALPKKLLN to AHFQPQRTAPKPPIS, the SPOT intensity falls from 16 to 0.

STPQTMRQAPKRPDA showed an SPOT intensity of 0.

Target: Sho1, P40073
Sequence (P40073 287-367): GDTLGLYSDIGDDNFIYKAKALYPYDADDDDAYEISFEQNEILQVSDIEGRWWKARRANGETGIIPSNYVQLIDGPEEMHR
Experiment: SPOT array
Conditions: median of control spots 1148

First: IRMPSNPALPKKLLN
Second: AHFQPQRTAPKPPIS
The SPOT intensity of the first is higher: 79 for the first, 1 for the second.

Work on STPQTMRQAPKRPDA yielded an SPOT intensity of 4.

Target: T11, Sla1-2, P32790
Experiment: SPOT array
Conditions: median of control spots 712

Compared with IRMPSNPALPKKLLN, AHFQPQRTAPKPPIS is lower in SPOT intensity: 18 for the first, 0 for the second.

STPQTMRQAPKRPDA gave an SPOT intensity of 2.

Target: Myo3, P36006
Experiment: SPOT array
Conditions: median of control spots 468

Going from IRMPSNPALPKKLLN to AHFQPQRTAPKPPIS, the SPOT intensity rises from 72 to 413.

STPQTMRQAPKRPDA gave an SPOT intensity of 47.

Target: T12, Lsb1, P53281
Experiment: SPOT array
Conditions: median of control spots 388

First: IRMPSNPALPKKLLN
Second: AHFQPQRTAPKPPIS
The SPOT intensity of the first is higher: 47 for the first, 17 for the second.

STPQTMRQAPKRPDA gave an SPOT intensity of 24.

Target: T13, Bzz1-1, P38822
Experiment: SPOT array
Conditions: median of control spots 4446

Compared with IRMPSNPALPKKLLN, AHFQPQRTAPKPPIS is higher in SPOT intensity: 0 for the first, 1 for the second.

For STPQTMRQAPKRPDA, the SPOT intensity was 0.

Target: T14, Fus1, P11710
Experiment: SPOT array
Conditions: median of control spots 1200

IRMPSNPALPKKLLN and AHFQPQRTAPKPPIS are the same in SPOT intensity: 0 for the first, 0 for the second.

With STPQTMRQAPKRPDA the SPOT intensity was 0.

Target: T15, Lsb3, P43603
Experiment: SPOT array
Conditions: median of control spots 406

First: IRMPSNPALPKKLLN
Second: AHFQPQRTAPKPPIS
The SPOT intensity of the first is higher: 53 for the first, 0 for the second.

STPQTMRQAPKRPDA was tested, and the SPOT intensity was 45.

Target: T16, Boi1, P38041
Experiment: SPOT array
Conditions: median of control spots 1162

IRMPSNPALPKKLLN and AHFQPQRTAPKPPIS are the same in SPOT intensity: 0 for the first, 0 for the second.

Work on STPQTMRQAPKRPDA yielded an SPOT intensity of 0.

Target: T17, Pex13, P80667
Experiment: SPOT array
Conditions: median of control spots 1341

Going from IRMPSNPALPKKLLN to AHFQPQRTAPKPPIS, the SPOT intensity falls from 352 to 13.

Work on STPQTMRQAPKRPDA yielded an SPOT intensity of 116.

Target: T18, Bud14, P27637
Experiment: SPOT array
Conditions: median of control spots 956

IRMPSNPALPKKLLN and AHFQPQRTAPKPPIS are the same in SPOT intensity: 1 for the first, 1 for the second.

Work on STPQTMRQAPKRPDA yielded an SPOT intensity of 0.

Target: T19, Boi2, P39969
Experiment: SPOT array
Conditions: median of control spots 1161

Compared with IRMPSNPALPKKLLN, AHFQPQRTAPKPPIS is lower in SPOT intensity: 2 for the first, 0 for the second.

Binder STPQTMRQAPKRPDA has an SPOT intensity of 1.

Target: T20, Sla1-3, P32790
Experiment: SPOT array
Conditions: median of control spots 5475

Compared with IRMPSNPALPKKLLN, AHFQPQRTAPKPPIS is higher in SPOT intensity: 0 for the first, 4 for the second.

With STPQTMRQAPKRPDA the SPOT intensity was 2.

Target: T21, Cyk3, Q07533
Experiment: SPOT array
Conditions: median of control spots 1451

IRMPSNPALPKKLLN and AHFQPQRTAPKPPIS are the same in SPOT intensity: 0 for the first, 0 for the second.

STPQTMRQAPKRPDA gave an SPOT intensity of 1.
